Test results taken from the NTF2 design screens of Basanta et al. (2020).

Experiment: protease stability score; higher = more stable; yeast display proteolysis, trypsin and chymotrypsin;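 note: relative to predicted unfolded state with 0 unfolded-like and 1 meaning tenfold more protease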

Sequence | protease stability score
DEDTRLAEDELQLWVEHVETGDEDTLFELLDPNVRLHIGDKELHGREAWVQWLVEARVEHVHIRDIKVVDGKVLITGRIIFRVGDKRVDTDHHMIIEKINGRWVLHEIHFH | 2.07
DEDTRLEKEFLRILEEILKTGDEERLRRLVDPNTRLEVGDKRFHGWDAVHYMLRIFGIERIHFELTSRRRVNGRLELDGILRFNGRDHDTHIIIDKINGVWIVREERVE | 2.19
DEDTRMNELFVRLFYELLTTGDEEHIHEMFDPHARLDFDGQQYHGREDAVRKMHELSRRLGIKHIEIREFRKVGDWANLHGKIYVNGQEYELHVILHKVDGRWITRDIRIK | 1.3
DEDTTMLEEMARLLVEMWLTGDEEKIYKLADPDVRLNVNGKDQIGREESEKLRRELLETLGIKHFEVEDLKIRLIDGRVNVHIYGIVKFNGVNVKMILDHHSRKVNGRWRIEHLRIIHI | 1.32
DEDVEDSLRALRELTKSLITGDEDSFRHLADPHARFIWNGKEIHGWEEVVKVVSKILKHLRFDDIILRDIRIQGDKIEFVVTDLVTVGDKHEEVDSRVTIYKVNGRWLLHTIKIR | 1.3
DEDVELFELIFKVMIELLETGNEELLRHLADPHTRVHINGVDFHGMEDWLKFLRHIRIEDIKIRHVSVVNGVMHAETETLMHVNGRDKRVDTRVTAIKINGRWVLKHVQYK | 2.51
DEDVKLALHIIHLFIRALSTGNEELVKTYADPHWRLEIGDKILHGMDEWKEDLKELRIYYHHVTFRDYEIIDGRIIIHTELDGRLEVGDYEQRIRTRTHVFVDKINGRWDITHVEVR | 1.2
DEDVKTLEHLLRLINDINRTGDEERWMHEADPNTLVIYDGVESHGRESVMKLYHKHWEQLRIEEIHIHHIKMQGNKATIHGRLRGEIDGREKSFTIHVHIILINGQIQSITFRIE | 1.02
DEDWHKLEETMRRFAKAMLTGDEDDLRKLADPDYRLDVNGRDLHGMESVKHWLDELRLVINDVKVREVHVIDGRLYLDTQVHSIETINGVEIRFVTETHVVIRKIDGKWINREMSIK | 0.285
DEDYENFERFLKEWSHSVLTGNEDRLMELADPHTRLNINGVDIHGREEVLKFEHEHLKRVKGATLRRVRVRHYSFVNGVAFVETEFDGHINGVDYRLETEMHIHKFNGVWRMKHIEKK | 0.956
DEEALKKLQDILRRNDQDKMNKMIDKDVRVVIGEHEYRGKRNVQEALKREYEHADRFEVKHIEDHGDKLHVDVVLRVDGRDIRFVVVIDVHNGNIRNVKVDFTDEDTQRDFQRQLD | 1.02
DEEDDEAREVHERLVRAFKTGNEELLLKMADPNTRDLFVVDGRTIHLVGWEHWRISLHELRIHDQRIRRSHVIDGRVHSDWEIDVEFNGRRSRKKLEIRIEVVNGVTKSVEFIFR | 1.31
DEEDEALERSRQLLIKILRTGDFEDLDRMLDPHVRIIIGDKEFHGREEAIKWVRERMKRMGAKVVEHFNEDDWRLQGDKIELDGEYNVRQGDKQYHLRVHIISLKVDGKWYFHSLEIK | 0.232
DEEDEANKQIMEHLRKVWDTGDFHTYLRLADPHMRFIVGDKIFHGREEITQLIKELLEKFGADHVELENSRESLVGDKLHLDLHTRYHFNGREIRVDVHNEVTKIDGKWHIKFLSLRIK | 1.42
DEEDEASHLALRLLEFTMKTGDERVSKENFDPNVRIEINGVDLHGWEHLTRILREIRIHDVRIEHSEVQGEKLILHGRMHWRVNGRDIEVETQVHAIKVDGKWRTKRIHFD | 1.49
DEEDEDAHYALKLLLKMVHTGNEEDMQRYLDPNVRVEQGDYHYHGREASEIIKNRFKNVKVKVDHYEIQGEYVNLKVTIDVNGKHKQSTIIVHKFDGRWLIEKIIII | 2.48
DEEDEDARVALEEVMRSQITGDEEKSEKLIDPHVRLEIGDKIYHGRELVVRVEHELGVKHIEPKKVEMQGDWIDLHGVIVYGDKKIHQTLHLLKFNGKWLIKEIRIK | 1.6
DEEDEDIHRLFHELVEALLTGDERTLLRLIDPHARLIIGDKHFHGRELIVKIIYEMLRELRVHSINMHHIDVIGEKVVLDVHIHVEQGDKHRIIRVNIISKKIDGRWLIKSIKVH | 1.16

Sequence | protease stability score
DEEDEEFKRAMDDWIRAILTGDEQRVEELFDPNVRFQVNGKETVGRDFLIHYVREWRLDSKVDIKRSEVQGDKVRVDVTMKLTIDVNGQRIHDQHKVTIIAEKIDGRWEIKELIVH | 0.676
DEEDEELHRILQLLKEYWKTGDWERFHELADPNPLLIINGVENHGMDSVKHAWEEFRRRIDHNEKIEDKDSKRQGEFIVLHVKVDGHVNGRRTETDMHIILLIVNGKVKDVEIRIR | 1.38
DEEDEELRRLLELLLRLYMTGDEHTLQTLADPHMKVRFHWDGREIRDHGRDALERHLKEWRVNDMDVNHFEAFNGRNMIDGILDGIINGVERRHKLELHFDLVNGRVKSVEIVLR | 1.08
DEEDEERTWAWEIFVKIIRTGDEQKLHEMADPHVRLHVGDKHEHGREELVKFFIDYILSLGVDHIEVHLKREDRINGRIHIDSKLRIEVGDKEITNNTHVLFLKVDGKWILKQVEIK | -0.11
DEEDEESHRLMRETIHLLLTGDEEVWAQLADPDVRVLFNGVDYHGREEFLRIWHHMVKEIRVDKHEIKTIEVQGDKVLSDIRMHVEFNGKRTKVRVNLRLQSINGRTKYLSIHIH | 1.21
DEEDEETREIAEMLHRWFITGDWKALMKYVDPNMRNIIHVNGRNIHTHGWKDMVKDLKDLGLENIHVDLKSISFQGDKAHIDGQLRVGDKEEKVEIHSEVVNGRIKRLEIRVH | 1.9
DEEDEHALRMARLWWKALTTGDEELLHKLMDPDVRVEINGVEIHGRETYERFLHKLRRDLGVKHIEIQFHHIELYGEKIIIEGTIFIRQGDKEHKERSIIILVVVDGRIKSSKIILL | 2.19
DEEDEHFEEVLRRTRHVWKTGDWRRLHELFDPNTRIHVNGRDVIGREEASRIIYEMLRQADHFHYRIRRFEIQGDKIHSEIEVIIIVNGRLIRLDTHVVAIKVNGRWVIESEEIR | 1.48
DEEDEHLHQFLEDFKHNLKTGNFEAISKNADPHVRVIFNGRRFHGMENVKRLWEELGVDHVRIDHFELIDGRIDLNTTIEQGDKHRRTRLHILIVNGRIKSIHIHFE | 1.16
DEEDEHVKKAAEDFLRWWLTGDESRLLELFDPNMLLIIGDKHIHGRESVVHFFSELRERLGIDHIELEDVHIREVNGRAEFHSHILLHINGQKVKVDVRIHFHKVNGRWLFEHEHVEIR | 1.32
DEEDEIAEKIMRIILRAFTTGDEETVEKLVDPHARLEFNGRETHGRESWFKLMHHLRIRRMRIHNERIHTQGDFSLSHVRIEFDGEINGKRVEDETRMEIRVIVVNGVVKSVSLSTE | 1.35
DEEDEILERLFKLWIEEFLTGDWEAFHRYFDPRTRIHIGDKHHHGRTEYEKVAKHLNKRIDHVIIIIRRMEHQGDYIKVDTESRHKIDGVDISTHYILHHRIVDGKIHEIDVIYL | 0.647
DEEDEILERNFRKMLEDWKTGDEEMYSKLIDPHAKVDYNGREFVGREYAVEVWHKMGVDHIILRRSDVQGDKIKLDFESRQGDKSSNLKMESEKVNGVWLLHSVRYE | 1.11
DEEDEILRHFLEEFWRAIRTGDEDTLMHLMDPHAKEEVNGRELHGRHEISRHLVKLGIKHMHIDDSKRYGDKITLHITVEVNGRKIDLEVYAIKVDGRWKIEHSQIK | 1.05
DEEDEITDRLAKLLQHAYHTGDWKLWLNLADPHVRVDFNGVEIHGREEITDWFRKHYRDLGVTRFEVHVHHIHNIGDKIVQETHLLVNGRTFRTEVTIIVINGRVKSEHVNLR | 0.848
DEEDEITHKMLRRWFEILATGNEHLFQHYADPNVLVRYEVGDKEWRLHGREEALRYWSELRIHELKVEHFTEVGDKVHMDTRRKGEFDGRRDTKKTRVHIVIIDGRLHNVELRIV | 1.14
DEEDEKTRRMAELWSKWKSTGDEELFHHFADPRTRLEIGDKKYHGRDLISKIWFKERKEIRSDINIKDVDVFNGVAILHGTLILEINGQRDSIDVTFHIVLINGRIHEVRVEWR | 0.73
DEEDELAEHLLHIIIDALETGDWKFFADYFDPHTRLEIEIGDKRFQLHGRESIRKRWEEIWRELGVKHREIKSTRLIGDKIEMDVTINVGDKRIRHHIVIVIVNGRMKKEMVIVR | 1.19
